Substrate in the data set: N[C@@H](CC(=O)O)C(=O)O
Briefly: purified protein. The note with it: 37 °C, 5 min, PBS pH 7.0 (pH of the activity assay), pyruvoyl-dependent.

The mark [1] stands for this setting: variant N3, I126* = C-terminal deletion from residue 126.
Where [2] appears, read: variant Y1, I126* = C-terminal deletion from residue 126.

Experimental findings from PMC11808261 are described below.

B1: BsADC (L-aspartate-alpha-decarboxylase, panD-wt) (Bacillus subtilis subsp. subtilis str. 168; A99E/DEL126-127/I88M/K113R/K63N/S7N) (protein)
chain 1: MYRTMMNGKLHRATVTEANLNYVG
chain 2: SITIDEDLIDAVGMLPNEKVQIVNNNNGARLETYIIPGNRGSGVICLNGAAARLVQEGDKVIIMSYKMMSDQEAESHEPKVAVLNDQNRIEQMLGNEPART
For orientation: Km means the substrate concentration at which the rate is half of its maximum. Broadly, the kcat is the maximal rate divided by the concentration of active sites. By kcat/Km is commonly meant the turnover number divided by the Michaelis constant. For B1, under setting [1], the Michaelis constant (Km) turned out to be 3.22 ± 0.15 mM, the kcat stood at 8.29 s⁻¹ and the kcat/Km amounted to 2570 M⁻¹ s⁻¹.

B2: BsADC (L-aspartate-alpha-decarboxylase, panD-wt) (Bacillus subtilis subsp. subtilis str. 168; A99E/DEL126-127/I88M/K113R/K63N/S7Y) (protein)
chain 1: MYRTMMYGKLHRATVTEANLNYVG
chain 2: SITIDEDLIDAVGMLPNEKVQIVNNNNGARLETYIIPGNRGSGVICLNGAAARLVQEGDKVIIMSYKMMSDQEAESHEPKVAVLNDQNRIEQMLGNEPART
In the case of B2, under setting [2], the Km turned out to be 3.82 ± 0.29 mM, the kcat was determined as 7.26 s⁻¹ and the kcat/Km turned out to be 1900 M⁻¹ s⁻¹.

B3: BsADC (L-aspartate-alpha-decarboxylase, panD-wt) (Bacillus subtilis subsp. subtilis str. 168) (protein)
chain 1: MYRTMMSGKLHRATVTEANLNYVG
chain 2: SITIDEDLIDAVGMLPNEKVQIVNNNNGARLETYIIPGKRGSGVICLNGAAARLVQEGDKVIIISYKMMSDQEAASHEPKVAVLNDQNKIEQMLGNEPARTIL
In the case of B3, the Michaelis constant (Km) came to 3.69 ± 0.33 mM, the catalytic constant (kcat) stood at 4.25 s⁻¹ and the kcat/Km was determined as 1150 M⁻¹ s⁻¹.
